According to PMC4475461:
Read-outs that look alike come from different tables or passages of the source.

T1: HLTF HIRAN domain (Homo sapiens, UniProt Q14527 55-180)
T1 sequence: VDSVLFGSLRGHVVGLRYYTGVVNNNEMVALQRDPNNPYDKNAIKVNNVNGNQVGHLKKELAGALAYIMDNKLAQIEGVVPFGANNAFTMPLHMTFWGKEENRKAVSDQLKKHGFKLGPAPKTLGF


Assays:
HLTF HIRAN domain [1] = biological target: T1, HLTF HIRAN domain; assay: NMR
HLTF HIRAN domain [2] = biological target: T1, HLTF HIRAN domain; assay: NMR; remark: listed apart in the source

Binder | binding result (HLTF HIRAN domain [1]) | binding result (HLTF HIRAN domain [2])
TTTTTTTTTT (ssDNA) [dT10 (NMR)] | binds | –
GCTGATAAAT (ssDNA) [d(GCTGATAAAT)] | – | binds
d(GCTGATAAAT) duplex (dsDNA) DNA 1: GCTGATAAAT DNA 2: ATTTATCAGC | – | no binding
